These results are taken from US20240279358A1 (Alector, published 2024).

Assay [1] deals with T1, human MerTK on M2c-differentiated human macrophages (human, UniProt Q12866 21-999).
T1 sequence: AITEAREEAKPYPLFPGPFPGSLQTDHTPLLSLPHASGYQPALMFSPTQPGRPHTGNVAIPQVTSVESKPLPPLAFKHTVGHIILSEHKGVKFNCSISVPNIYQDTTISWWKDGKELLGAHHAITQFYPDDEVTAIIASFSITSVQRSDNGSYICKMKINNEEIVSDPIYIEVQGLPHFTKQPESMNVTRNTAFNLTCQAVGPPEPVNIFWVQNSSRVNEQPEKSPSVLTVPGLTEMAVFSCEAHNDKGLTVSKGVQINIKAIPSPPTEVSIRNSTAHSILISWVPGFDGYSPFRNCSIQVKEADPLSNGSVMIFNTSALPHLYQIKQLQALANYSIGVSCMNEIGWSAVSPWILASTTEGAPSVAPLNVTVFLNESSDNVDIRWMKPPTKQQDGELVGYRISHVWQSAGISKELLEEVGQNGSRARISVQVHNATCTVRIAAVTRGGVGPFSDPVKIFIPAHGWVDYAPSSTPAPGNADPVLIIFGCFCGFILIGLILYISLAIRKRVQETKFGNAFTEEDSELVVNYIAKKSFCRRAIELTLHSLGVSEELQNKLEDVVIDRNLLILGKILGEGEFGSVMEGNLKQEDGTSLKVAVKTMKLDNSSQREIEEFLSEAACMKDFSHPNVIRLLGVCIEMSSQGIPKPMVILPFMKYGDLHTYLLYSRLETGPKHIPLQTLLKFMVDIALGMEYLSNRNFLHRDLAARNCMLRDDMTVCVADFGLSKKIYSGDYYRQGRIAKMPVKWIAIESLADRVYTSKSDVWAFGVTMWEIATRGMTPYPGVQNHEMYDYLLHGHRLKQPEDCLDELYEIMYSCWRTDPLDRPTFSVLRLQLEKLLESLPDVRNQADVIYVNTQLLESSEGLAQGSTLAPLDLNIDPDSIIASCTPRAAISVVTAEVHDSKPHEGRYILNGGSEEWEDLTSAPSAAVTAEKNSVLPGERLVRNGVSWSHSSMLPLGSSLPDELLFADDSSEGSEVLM
The assay is described as follows: cell-based or functional assay.

Assay [2] deals with T2, human MerTK overexpressed on CHO cells (CHO-huMerTK OE) (human, UniProt Q12866 21-999).
T2 construct: also called human MerTK overexpressing CHO cells; not shown: mGFP tag of the lentiviral ORF clone
T2 sequence: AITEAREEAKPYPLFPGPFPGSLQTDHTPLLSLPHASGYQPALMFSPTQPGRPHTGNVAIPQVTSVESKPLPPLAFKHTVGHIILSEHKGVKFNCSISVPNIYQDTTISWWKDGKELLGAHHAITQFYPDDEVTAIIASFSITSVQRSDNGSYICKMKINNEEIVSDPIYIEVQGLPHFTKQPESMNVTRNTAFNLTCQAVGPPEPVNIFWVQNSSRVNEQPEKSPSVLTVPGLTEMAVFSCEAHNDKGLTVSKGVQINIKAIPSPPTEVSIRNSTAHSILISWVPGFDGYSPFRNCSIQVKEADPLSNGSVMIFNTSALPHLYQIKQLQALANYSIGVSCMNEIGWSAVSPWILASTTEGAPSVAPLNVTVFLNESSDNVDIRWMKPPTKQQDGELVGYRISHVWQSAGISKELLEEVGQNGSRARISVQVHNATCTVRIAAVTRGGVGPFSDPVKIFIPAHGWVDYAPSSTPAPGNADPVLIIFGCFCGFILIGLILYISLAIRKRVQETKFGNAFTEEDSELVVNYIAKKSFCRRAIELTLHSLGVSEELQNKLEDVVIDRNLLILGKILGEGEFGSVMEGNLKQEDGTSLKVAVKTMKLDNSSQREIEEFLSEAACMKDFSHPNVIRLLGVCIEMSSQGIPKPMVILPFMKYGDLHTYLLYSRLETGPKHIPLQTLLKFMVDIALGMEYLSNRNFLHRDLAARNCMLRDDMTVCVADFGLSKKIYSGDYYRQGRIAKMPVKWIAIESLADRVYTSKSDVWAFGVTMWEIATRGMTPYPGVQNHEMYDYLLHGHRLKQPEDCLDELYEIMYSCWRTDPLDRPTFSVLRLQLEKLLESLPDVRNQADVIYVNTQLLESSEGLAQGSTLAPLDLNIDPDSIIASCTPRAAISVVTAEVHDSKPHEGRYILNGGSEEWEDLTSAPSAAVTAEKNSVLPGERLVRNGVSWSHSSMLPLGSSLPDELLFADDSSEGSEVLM
Put plainly: FACS, Dylight650-conjugated antibody on CHO-huMerTK OE cells, MFI against Ab concentration. (In general: Flow cytometry measures light scatter and fluorescence of single cells or particles in a stream.)

The target in assay [3] is T1, human MerTK on M2c-differentiated human …. Put plainly: FACS on M2c-differentiated human macrophages; reference is monovalent MTK-33.11.
Text: (§1) Human macrophages were differentiated from human monocytes for 7 days in the presence of human M-CSF, resulting in M2c-differentiated human macrophages. After 7 days, the differentiated human macrophages were harvested (by scraping), resuspended in PBS, and plated on 96-well plates for use. CHO cells overexpressing human MerTK (CHO-huMerTK OE) or M2c-differentiated human macrophages were stained with Dylight650-conjugated monovalent anti-MerTK antibodies or bivalent anti-MerTK antibodies (i.e., anti-MerTK antibodies comprising two full-length heavy chains and two full-length light chains) for 30 min on ice. A range of antibody concentrations were used in these studies to obtain binding curves. […] Cells were fixed and then acquired on a BD FACS Canto II cytometer. The mean fluorescence intensity (MFI) was calculated using FlowJo software and Kd value was calculated using Prism software.
For assay [4] the target is unchanged. The assay is described as follows: cell-based or functional assay. The source holds these as a separate data set.
The target of assay [5] is T3, recombinant murine MerTK extracellular domain (mouse, UniProt Q60805 19-497).
T3 construct: The entry starts with the native signal peptide; also called moMerTK; murine MerTK ECD; not shown: tag
T3 sequence: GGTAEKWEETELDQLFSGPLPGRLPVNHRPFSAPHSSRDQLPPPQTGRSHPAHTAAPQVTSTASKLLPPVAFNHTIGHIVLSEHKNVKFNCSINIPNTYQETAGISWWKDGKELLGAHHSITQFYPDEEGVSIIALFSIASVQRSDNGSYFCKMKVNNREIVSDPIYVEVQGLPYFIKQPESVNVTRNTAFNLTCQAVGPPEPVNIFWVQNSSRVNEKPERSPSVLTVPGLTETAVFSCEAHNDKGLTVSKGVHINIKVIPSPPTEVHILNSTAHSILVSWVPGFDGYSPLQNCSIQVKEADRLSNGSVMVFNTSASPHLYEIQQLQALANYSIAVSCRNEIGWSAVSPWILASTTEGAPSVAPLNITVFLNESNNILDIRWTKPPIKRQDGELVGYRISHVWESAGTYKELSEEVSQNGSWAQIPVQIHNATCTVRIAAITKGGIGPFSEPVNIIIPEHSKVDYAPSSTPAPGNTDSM
Put plainly: SPR (Carterra LSA), antibody immobilised on an HC30 chip, MerTK ECD as analyte; estimate from a 1:1 fit.

For assay [6], the target named is T4, recombinant cynomolgus MerTK extracellular domain (cynomolgus, UniProt Q12866 21-505 (human entry)).
T4 construct: The entry starts with the native signal peptide; also called cynoMerTK; cyno MerTK ECD; not shown: tag
T4 chain: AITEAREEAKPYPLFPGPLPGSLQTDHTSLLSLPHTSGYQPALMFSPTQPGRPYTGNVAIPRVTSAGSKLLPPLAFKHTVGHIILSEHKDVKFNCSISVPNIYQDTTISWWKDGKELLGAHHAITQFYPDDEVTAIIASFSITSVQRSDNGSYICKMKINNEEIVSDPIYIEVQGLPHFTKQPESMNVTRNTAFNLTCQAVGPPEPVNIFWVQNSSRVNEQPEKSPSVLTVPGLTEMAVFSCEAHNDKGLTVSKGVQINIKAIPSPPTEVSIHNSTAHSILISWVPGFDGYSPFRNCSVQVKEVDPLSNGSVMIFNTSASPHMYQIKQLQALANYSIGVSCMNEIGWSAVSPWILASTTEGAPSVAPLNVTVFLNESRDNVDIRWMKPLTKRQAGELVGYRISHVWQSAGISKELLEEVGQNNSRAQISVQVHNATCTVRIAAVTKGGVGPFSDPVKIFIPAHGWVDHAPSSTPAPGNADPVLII
Described as above.

Assay [7] concerns the target T5, recombinant human MerTK extracellular domain (human, UniProt Q12866 21-505).
T5 construct: The entry starts with the native signal peptide, while the construct used a heterologous signal peptide; also called huMerTK; human MerTK ECD; not shown: tag
T5 sequence: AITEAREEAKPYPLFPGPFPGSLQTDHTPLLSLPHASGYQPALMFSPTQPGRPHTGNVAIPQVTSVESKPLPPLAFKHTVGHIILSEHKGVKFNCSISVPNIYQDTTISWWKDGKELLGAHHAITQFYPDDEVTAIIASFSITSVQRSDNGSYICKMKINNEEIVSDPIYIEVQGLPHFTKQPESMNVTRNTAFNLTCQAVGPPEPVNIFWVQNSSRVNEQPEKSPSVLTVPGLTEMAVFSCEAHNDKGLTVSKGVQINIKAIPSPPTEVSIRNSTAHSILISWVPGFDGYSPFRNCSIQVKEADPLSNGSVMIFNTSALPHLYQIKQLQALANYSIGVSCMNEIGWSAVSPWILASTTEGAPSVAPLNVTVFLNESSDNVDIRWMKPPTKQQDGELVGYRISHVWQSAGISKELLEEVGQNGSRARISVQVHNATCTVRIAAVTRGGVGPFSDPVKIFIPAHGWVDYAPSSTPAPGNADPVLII
The description is as above.

For assay [8], the target named is T2, human MerTK overexpressed on CHO cells …. The assay is described as follows: FACS on CHO-huMerTK OE cells; reference is monovalent MTK-33.11.
Text: as §1
Assay [9] shares this target. Put plainly: FACS, Dylight650-conjugated antibody titrated on CHO-huMerTK OE cells; Kd fitted in Prism from MFI.
Text: as §1
In assay [10] the target is T1, human MerTK on M2c-differentiated human …. The assay is described as follows: cell-based or functional assay. This is another data set of the same source.
For assay [11] the target is unchanged. Put plainly: FACS, Dylight650-conjugated antibody titrated on M2c-differentiated human macrophages; Kd fitted in Prism from MFI.
Text: as §1
Assay [12] deals with T3, recombinant murine MerTK extracellular …. Put plainly: SPR (Carterra LSA), antibody immobilised on an HC30 chip, MerTK ECD as analyte.
Experimental: Binding kinetics of monovalent anti-MerTK antibodies of the present disclosure to human, cyno, and murine MerTK were evaluated using a Carterra LSA instrument. […] A HC30 sensor chip (Carterra) was activated using the single channel flow cell with a 7-minute injection of a 1:1:1 mixture of 100 mM MES pH 5.5, 100 mM sulfo-NHS, 400 mM EDC (all reconstituted in MES pH 5.5; 100 μl of each mixed in vial immediately before running assay). After switching to the multi-channel array flow cell, the antibodies were injected over the activated chip in a 96-spot array for 15 minutes. A duplicate injection of the antibodies on a second block of the chip was spotted as before. The remaining unconjugated active groups on the chip were then blocked by injecting 1M Ethanolamine pH 8.5 (Carterra) for 7 minutes using the single channel flow cell.
After priming with running buffer (HBS-TE, Carterra) with 0.5 mg/ml BSA (Sigma), the immobilized anti-MerTK antibodies were tested for their ability to bind to several forms of recombinant MerTK extracellular domain, including that of human, cynomolgus, and mouse orthologs as described above. Estimates of affinity were generated by injecting each analyte over the entire antibody array using the single channel flow cell. […] Data were processed and analyzed using NextGenKIT high-throughput kinetics analysis software (Carterra).

B1: bivalent anti-MerTK antibody MTK-33.11 LALAPS (antibody, human IgG1, kappa, L234A L235A, V domains shown)
VH: QVQLVQSGAEVKKPGASVKVSCKASGYTFTSYWMHWVRQAPGQGLEWIGVIDPSDNYINYNQKFQGRVTMTRDTSTSTVYMELSSLRSEDTAVYYCAREAWTRGYFDYWGQGTLVTVSS
VL: DIQMTQSPSSLSASVGDRVTITCQASRSVRNTVAWYQQKPGKAPKLLIYYASNRYTGVPSRFSGSGSGTDFTFTISSLQPEDIATYYCQQDYRSPFTFGQGTKLEIKR
notes: Two full-length heavy chains and two full-length light chains, human IgG1 LALAPS; Dylight650-conjugated in the FACS assay; also called MTK-33.11 bivalent LALAPS; MTK-33.11 full IgG
For B1, the “Average fold change in pAKT activity in the absence of huGas6” value (“Average fold change in pAKT activity” for short) in assay [1] worked out at 1.41 fold. Moreover, the concentration for a half-maximal effect (EC50 (read off the curve)) in [2] is roughly 4 nM. The “fold higher affinity than monovalent MTK-33.11” value in [3] is roughly 5 fold; in assay [8], roughly 10 fold. Further, the “Average pAKT IC50 (nM) in the presence of huGas6” value (shortened to “Average pAKT IC50 (nM)”) in assay [4] worked out at 1.25 nM. The Kd was 50 nM in assay [5]; 2 nM in [6]; 2 nM in assay [7]; 0.439 nM in assay [9]; 2 nM in assay [11]. Moreover, the “Efferocytosis blocking Average IC50” value in assay [10] stood at 0.341 nM.

B2: monovalent anti-MerTK antibody MTK-16.2 LALAPS (antibody, human IgG1, kappa, L234A L235A)
heavy: not shown
light: DIQMTQSPSSLSASVGDRVTITCRASQNVRTAVAWYQQKPGKAPKRLIYLASNRHTGVPSRFSGSGSGTEFTLTISNLQPEDFATYYCLQHWNYPLTFGGGTKLEIKRTVAAPSVFIFPPSDEQLKSGTASVVCLLNNFYPREAKVQWKVDNALQSGNSQESVTEQDSKDSTYSLSSTLTLSKADYEKHKVYACEVTHQGLSSPVTKSFNRGEC
chain: DKTHTCPPCPAPEAAGGPSVFLFPPKPKDTLMISRTPEVTCVVVDVSHEDPEVKFNWYVDGVEVHNAKTKPREEQYNSTYRVVSVLTVLHQDWLNGKEYKCKVSNKALPASIEKTISKAKGQPREPQVYTLPPSRDELTKNQVSLSCAVKGFYPSDIAVEWESNGQPENNYKTTPPVLDSDGSFFLVSKLTVDKSRWQQGNVFSCSVMHEALHNHYTQKSLSLSPGK
notes: One-armed antibody, human IgG1 LALAPS; Dylight650-conjugated in the FACS assay; also called MTK-16.2 monovalent LALAPS; MTK-16.2 monoarm
Turning to B2, the “Average fold change in pAKT activity” value in [1] was determined as 1.22 fold. Besides, the “Average pAKT IC50 (nM)” value in [4] came out at 15.3 nM. Further, in assay [12], the binding result is on record as “no binding”. Also, the dissociation constant (Kd) in [6] is 60 nM; in assay [7], 50 nM; in assay [9], 40.5 nM; in [11] it was 77.8 nM. In addition, the “Efferocytosis blocking Average IC50” value in assay [10] was determined as 37.9 nM.

B3: bivalent anti-MerTK antibody MTK-16.2 LALAPS (antibody, human IgG1, kappa, L234A L235A, V domains shown)
VH: QVQLVQSGSELKKPGASVKVSCKASGYTFTNHGMNWVRQAPGQGLEWMGWINTYTGEPTYADDFKGRFVFSLDTSVSTAYLQISSLKAEDTAVYYCARKGVTAARYFDYWGQGTLVTVSS
VL: DIQMTQSPSSLSASVGDRVTITCRASQNVRTAVAWYQQKPGKAPKRLIYLASNRHTGVPSRFSGSGSGTEFTLTISNLQPEDFATYYCLQHWNYPLTFGGGTKLEIKR
notes: Two full-length heavy chains and two full-length light chains, human IgG1 LALAPS; Dylight650-conjugated in the FACS assay; also called MTK-16.2 bivalent LALAPS; MTK-16.2 full IgG
B3: the “Average fold change in pAKT activity” value in assay [1] is 1.57 fold. For the same molecule, the “EC50 (read off the curve)” value in [2] was roughly 20 nM. In assay [4], the “Average pAKT IC50 (nM)” value came out at 3.22 nM. Also, the binding result in assay [12] was “no binding”. The equilibrium dissociation constant (Kd) in assay [6] is 60 nM; in [7] it was 50 nM; in assay [9], 42.5 nM; in [11], 51.9 nM. For the same molecule, the “Efferocytosis blocking Average IC50” value in assay [10] is 0.436 nM.

As usually defined, the EC50 (read off the curve) is the concentration at which the effect is half-maximal. The low end stands for higher potency in that assay, the high end for lower potency in that assay. The term Kd denotes a measure of binding affinity in units of concentration.
